Measured values reported in paper doi:10.1101/2023.04.12.536585 (2023).

Columns and labels:
[1] = target: p110γ-p84 complex (human p110γ, mouse p84) (human | mouse, UniProt P48736 1-1102; Q3U6Q4 1-756); experiment: BLI
[2] = target: p110γ-p101 complex (human p110γ, porcine p101) (human | porcine (Sus scrofa), UniProt P48736 1-1102; O02696 1-877); experiment: BLI
p110γ-p101 complex (human p110γ, porcine p101), sequence (P48736 whole entry, chain 1 of 2): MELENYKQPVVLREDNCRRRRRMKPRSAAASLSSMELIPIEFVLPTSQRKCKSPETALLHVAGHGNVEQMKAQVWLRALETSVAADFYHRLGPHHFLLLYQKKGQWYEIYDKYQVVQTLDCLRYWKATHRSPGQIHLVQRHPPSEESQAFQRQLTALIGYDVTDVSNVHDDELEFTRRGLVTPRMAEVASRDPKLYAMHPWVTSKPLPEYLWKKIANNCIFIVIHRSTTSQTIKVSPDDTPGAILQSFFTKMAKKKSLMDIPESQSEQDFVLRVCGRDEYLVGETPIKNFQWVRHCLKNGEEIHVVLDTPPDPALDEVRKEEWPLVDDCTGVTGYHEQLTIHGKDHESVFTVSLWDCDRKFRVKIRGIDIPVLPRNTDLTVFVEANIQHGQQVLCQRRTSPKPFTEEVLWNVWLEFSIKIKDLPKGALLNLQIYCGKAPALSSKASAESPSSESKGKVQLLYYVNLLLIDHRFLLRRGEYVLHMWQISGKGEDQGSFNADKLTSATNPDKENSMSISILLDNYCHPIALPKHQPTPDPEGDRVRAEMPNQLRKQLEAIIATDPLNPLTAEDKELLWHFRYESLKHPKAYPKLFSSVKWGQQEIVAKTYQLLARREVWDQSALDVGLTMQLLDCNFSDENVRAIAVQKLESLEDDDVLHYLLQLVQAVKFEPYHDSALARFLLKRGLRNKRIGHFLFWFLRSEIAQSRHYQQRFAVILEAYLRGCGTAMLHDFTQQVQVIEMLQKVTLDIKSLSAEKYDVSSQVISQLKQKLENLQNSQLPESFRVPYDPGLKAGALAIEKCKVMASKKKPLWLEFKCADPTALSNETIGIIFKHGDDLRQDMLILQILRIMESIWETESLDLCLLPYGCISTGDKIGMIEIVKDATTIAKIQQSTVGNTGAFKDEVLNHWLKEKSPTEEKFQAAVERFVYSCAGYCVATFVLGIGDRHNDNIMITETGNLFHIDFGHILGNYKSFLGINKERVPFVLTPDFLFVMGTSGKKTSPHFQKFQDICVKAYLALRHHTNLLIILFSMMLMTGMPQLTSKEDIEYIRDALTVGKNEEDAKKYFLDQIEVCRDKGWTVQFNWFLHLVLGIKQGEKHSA
p110γ-p101 complex (human p110γ, porcine p101), sequence (O02696 whole entry, chain 2 of 2): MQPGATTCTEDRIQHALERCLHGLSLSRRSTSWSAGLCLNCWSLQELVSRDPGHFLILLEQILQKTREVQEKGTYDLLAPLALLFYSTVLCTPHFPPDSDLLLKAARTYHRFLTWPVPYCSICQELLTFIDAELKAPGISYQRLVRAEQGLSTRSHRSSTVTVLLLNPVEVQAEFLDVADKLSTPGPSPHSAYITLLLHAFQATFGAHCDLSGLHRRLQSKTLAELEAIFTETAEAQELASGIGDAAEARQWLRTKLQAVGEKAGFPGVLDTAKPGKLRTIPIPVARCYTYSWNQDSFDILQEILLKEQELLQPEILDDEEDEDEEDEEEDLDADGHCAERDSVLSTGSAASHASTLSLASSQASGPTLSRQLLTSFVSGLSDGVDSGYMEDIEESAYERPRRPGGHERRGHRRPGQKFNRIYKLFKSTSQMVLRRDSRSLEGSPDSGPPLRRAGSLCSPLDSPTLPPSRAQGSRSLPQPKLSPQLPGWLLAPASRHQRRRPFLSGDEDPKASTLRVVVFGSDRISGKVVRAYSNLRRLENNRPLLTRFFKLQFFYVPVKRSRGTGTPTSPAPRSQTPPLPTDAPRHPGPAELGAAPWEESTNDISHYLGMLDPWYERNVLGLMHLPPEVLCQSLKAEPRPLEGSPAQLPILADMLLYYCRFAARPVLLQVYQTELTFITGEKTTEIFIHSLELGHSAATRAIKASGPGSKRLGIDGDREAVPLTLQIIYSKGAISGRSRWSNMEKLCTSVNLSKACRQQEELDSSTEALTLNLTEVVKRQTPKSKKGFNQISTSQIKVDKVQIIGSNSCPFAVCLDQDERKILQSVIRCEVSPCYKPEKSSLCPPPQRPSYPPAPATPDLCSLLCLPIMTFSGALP

p110γ-p84 complex (human p110γ, mouse p84), sequence (P48736 whole entry, chain 1 of 2): as the sequence (P48736 whole entry, chain 1 of 2) above
p110γ-p84 complex (human p110γ, mouse p84), sequence (Q3U6Q4 whole entry, chain 2 of 2): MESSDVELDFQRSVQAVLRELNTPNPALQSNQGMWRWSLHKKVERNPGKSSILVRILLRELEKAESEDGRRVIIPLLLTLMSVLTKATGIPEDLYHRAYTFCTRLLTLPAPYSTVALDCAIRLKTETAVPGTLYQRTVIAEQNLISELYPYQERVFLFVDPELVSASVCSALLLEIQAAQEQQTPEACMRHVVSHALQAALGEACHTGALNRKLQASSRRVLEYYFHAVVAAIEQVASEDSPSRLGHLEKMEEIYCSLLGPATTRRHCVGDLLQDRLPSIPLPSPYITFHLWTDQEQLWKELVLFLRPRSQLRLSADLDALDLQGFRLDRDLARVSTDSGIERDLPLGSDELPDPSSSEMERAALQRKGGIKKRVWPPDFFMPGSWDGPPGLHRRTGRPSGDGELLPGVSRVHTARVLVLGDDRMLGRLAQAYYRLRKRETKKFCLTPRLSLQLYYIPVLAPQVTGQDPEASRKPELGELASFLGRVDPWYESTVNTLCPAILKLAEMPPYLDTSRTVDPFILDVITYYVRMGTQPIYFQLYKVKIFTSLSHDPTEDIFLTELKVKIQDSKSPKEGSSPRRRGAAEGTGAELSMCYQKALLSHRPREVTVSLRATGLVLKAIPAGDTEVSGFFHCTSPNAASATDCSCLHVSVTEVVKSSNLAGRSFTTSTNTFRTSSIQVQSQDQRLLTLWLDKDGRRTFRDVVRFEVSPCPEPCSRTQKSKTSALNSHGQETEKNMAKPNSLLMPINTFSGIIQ

B1: Nanobody NB7-PIK3CG (VHH)
VHH: QVQLVESGGGLVQPGGSLRLSCAASGSIFSINAMGWYRQAPGKQRELVAHITSGGSTNYADSVKGRFTISRDNAKNTVYLQMNSLKPEDTAVYYCNEAGDPFLGSTWNGPPAFGSWGQGTQVTVSS
Kd [1]: 3 nM
Kd [2]: 3.1 nM
